Reference: patent US20120172293A1 (Takeda / Millennium, published 2012)
Non-standard residues stand in square brackets, D forms with d. *: point of attachment. 4Pal = N[C@@H](Cc1ccncc1)C(=O)O; Cha = N[C@@H](CC1CCCCC1)C(=O)O; Cit = NC(=O)NCCC[C@H](N)C(=O)O; Isonicotinoyl = O=C(c1ccncc1)*; Aipe = 3-aminobutanoic acid; Iva = CC[C@](C)(N)C(=O)O; Nle = CCCC[C@H](N)C(=O)O; Aib = CC(C)(N)C(=O)O

What was measured:
[1] = molecular target: human Y2 receptor (human) (UniProt P49146); test: RBA: displacement of [125I]-PYY from hY2R/CHO membranes
human Y2 receptor (human), sequence (P49146 whole entry): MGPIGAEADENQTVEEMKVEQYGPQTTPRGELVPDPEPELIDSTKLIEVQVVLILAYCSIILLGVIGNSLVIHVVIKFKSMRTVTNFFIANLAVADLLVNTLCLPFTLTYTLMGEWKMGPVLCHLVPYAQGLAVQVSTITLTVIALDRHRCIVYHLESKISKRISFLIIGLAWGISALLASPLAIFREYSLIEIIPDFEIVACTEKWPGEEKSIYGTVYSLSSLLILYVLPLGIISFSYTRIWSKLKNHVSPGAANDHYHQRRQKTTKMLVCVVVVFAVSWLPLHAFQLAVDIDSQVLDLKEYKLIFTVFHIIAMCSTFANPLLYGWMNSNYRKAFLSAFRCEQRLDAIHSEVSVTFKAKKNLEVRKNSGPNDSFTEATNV

[2] = molecular target: human Y2 receptor (human) (UniProt P49146); test: cell-based or functional assay

IC50 Ratio (IC50 compound/IC50 PYY(3-36)) [1]	GBA EC50 Ratio ([35S]GTPγS binding) (EC50 compound/EC50 PYY(3-36)) [2]	Binder
8.1	5.7	Isonicotinoyl-E[dP][Nle][4Pal][Cha][Aib]NK[Aib]TRQR[Cha]-NH2 (SMILES CCCC[C@H](NC(=O)[C@H]1CCCN1C(=O)[C@H](CCC(=O)O)NC(=O)c1ccncc1)C(=O)N[C@@H](Cc1ccncc1)C(=O)N[C@@H](CC1CCCCC1)C(=O)NC(C)(C)C(=O)N[C@@H](CC(N)=O)C(=O)N[C@@H](CCCCN)C(=O)NC(C)(C)C(=O)N[C@H](C(=O)N[C@@H](CCCNC(=N)N)C(=O)N[C@@H](CCC(N)=O)C(=O)N[C@@H](CCCNC(=N)N)C(=O)N[C@@H](CC1CCCCC1)C(N)=O)[C@@H](C)O) [4-Pyridinecarbonyl-[Glu23, D-Pro24, Nle25, Pya(4)26, Cha27,36, Aib28,31, Lys30]-PYY(23-36)]
24	11	Ac-S[dP][Aib]H[Cha][Aib]NK[Aib]TRQR[Cha]-NH2 (SMILES CC(=O)N[C@@H](CO)C(=O)N1CCC[C@@H]1C(=O)NC(C)(C)C(=O)N[C@@H](Cc1c[nH]cn1)C(=O)N[C@@H](CC1CCCCC1)C(=O)NC(C)(C)C(=O)N[C@@H](CC(N)=O)C(=O)N[C@@H](CCCCN)C(=O)NC(C)(C)C(=O)N[C@H](C(=O)N[C@@H](CCCNC(=N)N)C(=O)N[C@@H](CCC(N)=O)C(=O)N[C@@H](CCCNC(=N)N)C(=O)N[C@@H](CC1CCCCC1)C(N)=O)[C@@H](C)O) [Ac-[D-Pro24, Aib25,28,31, Cha27,36, Lys30]-PYY(23-36)]
0.81	1.1	Ac-S[Aib]R[4Pal][Cha][Aib]NK[Aib]TRQR[Cha]-NH2 (SMILES CC(=O)N[C@@H](CO)C(=O)NC(C)(C)C(=O)N[C@@H](CCCNC(=N)N)C(=O)N[C@@H](Cc1ccncc1)C(=O)N[C@@H](CC1CCCCC1)C(=O)NC(C)(C)C(=O)N[C@@H](CC(N)=O)C(=O)N[C@@H](CCCCN)C(=O)NC(C)(C)C(=O)N[C@H](C(=O)N[C@@H](CCCNC(=N)N)C(=O)N[C@@H](CCC(N)=O)C(=O)N[C@@H](CCCNC(=N)N)C(=O)N[C@@H](CC1CCCCC1)C(N)=O)[C@@H](C)O) [Ac-[Aib24,28,31, Pya(4)26, Cha27,36, Lys30]-PYY(23-36)]

Further lines, the binder ahead of its results:

Binder	IC50 Ratio (IC50 compound/IC50 PYY(3-36)) [1]	GBA EC50 Ratio ([35S]GTPγS binding) (EC50 compound/EC50 PYY(3-36)) [2]
Ac-S[Iva]R[4Pal][Cha][Aib]NK[Aib]TRQR[Cha]-NH2 (SMILES CC[C@](C)(NC(=O)[C@H](CO)NC(C)=O)C(=O)N[C@@H](CCCNC(=N)N)C(=O)N[C@@H](Cc1ccncc1)C(=O)N[C@@H](CC1CCCCC1)C(=O)NC(C)(C)C(=O)N[C@@H](CC(N)=O)C(=O)N[C@@H](CCCCN)C(=O)NC(C)(C)C(=O)N[C@H](C(=O)N[C@@H](CCCNC(=N)N)C(=O)N[C@@H](CCC(N)=O)C(=O)N[C@@H](CCCNC(=N)N)C(=O)N[C@@H](CC1CCCCC1)C(N)=O)[C@@H](C)O) [Ac-[Iva24, Pya(4)26, Cha27,36, Aib28,31, Lys30]-PYY(23-36)]	0.58	0.91
Ac-S[Aipe]R[4Pal][Cha][Aib]NK[Aib]TRQR[Cha]-NH2 [Ac-[Aipe24, Pya(4)26, Cha27,36, Aib28,31, Lys30]-PYY(23-36)]	1.3	2
Ac-S[dP][Iva][4Pal][Cha][Aib]NK[Aib]TRQR[Cha]-NH2 (SMILES CC[C@](C)(NC(=O)[C@H]1CCCN1C(=O)[C@H](CO)NC(C)=O)C(=O)N[C@@H](Cc1ccncc1)C(=O)N[C@@H](CC1CCCCC1)C(=O)NC(C)(C)C(=O)N[C@@H](CC(N)=O)C(=O)N[C@@H](CCCCN)C(=O)NC(C)(C)C(=O)N[C@H](C(=O)N[C@@H](CCCNC(=N)N)C(=O)N[C@@H](CCC(N)=O)C(=O)N[C@@H](CCCNC(=N)N)C(=O)N[C@@H](CC1CCCCC1)C(N)=O)[C@@H](C)O) [Ac-[D-Pro24, Iva25, Pya(4)26, Cha27,36, Aib28,31, Lys30]-PYY(23-36)]	2.9	2.9
Ac-E[dP][Nle][4Pal][Cha][Aib]NK[Aib]TRQR[Cha]-NH2 (SMILES CCCC[C@H](NC(=O)[C@H]1CCCN1C(=O)[C@H](CCC(=O)O)NC(C)=O)C(=O)N[C@@H](Cc1ccncc1)C(=O)N[C@@H](CC1CCCCC1)C(=O)NC(C)(C)C(=O)N[C@@H](CC(N)=O)C(=O)N[C@@H](CCCCN)C(=O)NC(C)(C)C(=O)N[C@H](C(=O)N[C@@H](CCCNC(=N)N)C(=O)N[C@@H](CCC(N)=O)C(=O)N[C@@H](CCCNC(=N)N)C(=O)N[C@@H](CC1CCCCC1)C(N)=O)[C@@H](C)O) [Ac-[Glu23, D-Pro24, Nle25, Pya(4)26, Cha27,36, Aib28,31, Lys30]-PYY(23-36)]	7.5	6.9
Ac-S[dP][Cit]H[Cha][Aib]NK[Aib]TRQR[Cha]-NH2 (SMILES CC(=O)N[C@@H](CO)C(=O)N1CCC[C@@H]1C(=O)N[C@@H](CCCNC(N)=O)C(=O)N[C@@H](Cc1c[nH]cn1)C(=O)N[C@@H](CC1CCCCC1)C(=O)NC(C)(C)C(=O)N[C@@H](CC(N)=O)C(=O)N[C@@H](CCCCN)C(=O)NC(C)(C)C(=O)N[C@H](C(=O)N[C@@H](CCCNC(=N)N)C(=O)N[C@@H](CCC(N)=O)C(=O)N[C@@H](CCCNC(=N)N)C(=O)N[C@@H](CC1CCCCC1)C(N)=O)[C@@H](C)O) [Ac-[D-Pro24, Cit25, Cha27,36, Aib28,31, Lys30]-PYY(23-36)]	6.2	4.6
